Laboratory results: publication PMC12499416, “ATF3 Deficiency Exacerbates Ageing‐Induced Atherosclerosis and Clinical Intervention Strategy” (Advanced Science, 2025)

Target: T1, ATG7 (analyte of the surface plasmon resonance assay) (UniProt Q9D906 1-698)
T1 construct: ATG7 used for surface plasmon resonance; Source of the protein may stand in the Supporting Information
T1 sequence (looked up): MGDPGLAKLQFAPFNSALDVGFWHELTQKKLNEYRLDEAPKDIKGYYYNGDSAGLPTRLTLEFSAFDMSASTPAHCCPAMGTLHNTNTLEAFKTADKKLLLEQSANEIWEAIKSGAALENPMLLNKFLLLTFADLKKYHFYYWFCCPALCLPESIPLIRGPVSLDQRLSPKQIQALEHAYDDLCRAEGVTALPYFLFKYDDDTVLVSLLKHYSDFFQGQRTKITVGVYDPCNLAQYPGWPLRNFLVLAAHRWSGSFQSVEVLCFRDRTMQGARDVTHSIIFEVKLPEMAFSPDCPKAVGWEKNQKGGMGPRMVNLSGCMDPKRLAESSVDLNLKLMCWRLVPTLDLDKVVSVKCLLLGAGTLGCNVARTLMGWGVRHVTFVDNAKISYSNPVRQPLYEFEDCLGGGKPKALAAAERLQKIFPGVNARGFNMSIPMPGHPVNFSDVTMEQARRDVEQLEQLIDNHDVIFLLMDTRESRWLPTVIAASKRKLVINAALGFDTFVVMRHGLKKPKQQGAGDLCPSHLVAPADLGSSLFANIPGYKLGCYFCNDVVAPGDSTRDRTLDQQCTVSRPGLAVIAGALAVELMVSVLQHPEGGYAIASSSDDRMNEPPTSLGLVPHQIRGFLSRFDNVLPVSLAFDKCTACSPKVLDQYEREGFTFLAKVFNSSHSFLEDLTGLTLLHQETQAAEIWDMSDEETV
Assay: SPR; ATF3 immobilized on the CM5 sensor chip, ATG7 as analyte
Conditions: both partners purified

B1: ATF3 immobilized on the CM5 sensor chip (natural protein)
chain: MMLQHPGQVSASEVSATAIVPCLSPPGSLVFEDFANLTPFVKEELRFAIQNKHLCHRMSSALESVTVNNRPLEMSVTKSEAAPEEDERKRRRRERNKIAAAKCRNKKKEKTECLQKESEKLESVNAELKAQIEELKNEKQHLIYMLNLHRPTCIVRAQNGRTPEDERNLFIQQIKEGTLQS
Kd: 963 nM
